Reference: publication PMC3656109

How the values were obtained:
[1] = target: KSHV gH (V5 epitope-tagged)/gL complex (Kaposi's sarcoma-associated herpesvirus (KSHV, HHV-8)) (UniProt F5HAK9)
[2] = target: RRV 26-95 gH (V5 epitope-tagged)/gL complex (rhesus monkey rhadinovirus (RRV) strain 26-95)

UniProt F5HAK9, sequence (F5HAK9 whole entry, looked up, one chain of several): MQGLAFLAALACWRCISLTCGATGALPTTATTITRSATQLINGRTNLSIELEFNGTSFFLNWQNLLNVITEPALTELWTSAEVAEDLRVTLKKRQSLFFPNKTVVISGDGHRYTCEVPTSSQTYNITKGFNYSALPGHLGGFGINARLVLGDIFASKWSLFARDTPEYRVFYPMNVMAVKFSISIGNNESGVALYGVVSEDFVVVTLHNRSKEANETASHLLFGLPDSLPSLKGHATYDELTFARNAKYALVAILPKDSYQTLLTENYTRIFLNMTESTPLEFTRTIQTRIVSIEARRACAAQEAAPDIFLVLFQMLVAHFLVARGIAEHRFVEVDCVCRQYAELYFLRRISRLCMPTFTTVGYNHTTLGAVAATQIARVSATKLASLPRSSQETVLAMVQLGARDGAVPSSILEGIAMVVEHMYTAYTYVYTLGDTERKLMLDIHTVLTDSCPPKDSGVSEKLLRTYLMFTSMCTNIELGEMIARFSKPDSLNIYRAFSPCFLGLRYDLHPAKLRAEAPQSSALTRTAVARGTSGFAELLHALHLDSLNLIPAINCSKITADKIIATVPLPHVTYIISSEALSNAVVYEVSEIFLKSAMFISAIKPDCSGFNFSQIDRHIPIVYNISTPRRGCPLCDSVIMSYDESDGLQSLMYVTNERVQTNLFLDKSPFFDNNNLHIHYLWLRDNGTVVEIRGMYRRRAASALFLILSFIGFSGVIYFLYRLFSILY

## EphA7-Fc (from UniProt Q15375 28-555) (Fc fusion)
[1]
  entry of KSHV into rhesus fibroblasts after pre-incubation of the virus with EphA7-Fc (1 to 20 µg/ml; no block at 1 µg/ml, value at 20 µg/ml): -35%

B1: EphA1-Fc (Fc fusion)
chain: KEVTLMDTSKAQGELGWLLDPPKDGWSEQQQILNGTPLYMYQDCPMQGRRDTDHWLRSNWIYRGEEASRVHVELQFTVRDCKSFPGGAGPLGCKETFNLLYMESDQDVGIQLRRPLFQKVTTVAADQSFTIRDLVSGSVKLNVERCSLGRLTRRGLYLAFHNPGACVALVSVRVFYQRCPETLNGLAQFPDTLPGPAGLVEVAGTCLPHARASPRPSGAPRMHCSPDGEWLVPVGRCHCEPGYEEGGSGEACVACPSGSYRMDMDTPHCLTCPQQSTAESEGATICTCESGHYRAPGEGPQVACTGPPSAPRNLSFSASGTQLSLRWEPPADTGGRQDVRYSVRCSQCQGTAQDGGPCQPCGVGVHFSPGARGLTTPAVHVNGLEPYANYTFNVEAQNGVSGLGSSGHASTSVSISMGHAESLSGLSLRLVKKEPRQLELTWAGSRPRSPGANLTYELHVLNQDEERYQMVLEPRVLLTELQPDTTYIVRVRMLTPLGPGPFSPDHEFRTSPPVSRGLTGGE
[1]
  entry of KSHV into rhesus fibroblasts after pre-incubation of the virus with EphA1-Fc (1 to 20 µg/ml; no block at 1 µg/ml, value at 20 µg/ml): -22%

B2: EphB3-Fc (Fc fusion)
chain: GCRALEETLMDTKWVTSELAWTSHPESGWEEVSGYDEAMNPIRTYQVCNVRESSQNNWLRTGFIWRRDVQRVYVELKFTVRDCNSIPNIPGSCKETFNLFYYEADSDVASASSPFWMENPYVKVDTIAPDESFSRLDAGRVNTKVRSFGPLSKAGFYLAFQDQGACMSLISVRAFYKKCASTTAGFALFPETLTGAEPTSLVIAPGTCIPNAVEVSVPLKLYCNGDGEWMVPVGACTCATGHEPAAKESQCRPCPPGSYKAKQGEGPCLPCPPNSRTTSPAASICTCHNNFYRADSDSADSACTTVPSPPRGVISNVNETSLILEWSEPRDLGGRDDLLYNVICKKCHGAGGASACSRCDDNVEFVPRQLGLTERRVHISHLLAHTRYTFEVQAVNGVSGKSPLPPRYAAVNITTNQAAPSEVPTLRLHSSSGSSLTLSWAPPERPNGVILDYEMKYFEKSEGIASTVTSQMNSVQLDGLRPDARYVVQVRARTVAGYGQYSRPAEFETTSERGSGAQQLQEQLPL
[2]
  decrease in nuclear accumulation of the RRV genome in HUVEC four hours post infection (real-time PCR) in the presence of 5 µg/ml EphB3-Fc: 74%
